B1: 4-28 (cys) ghrelin fragment (peptide)
peptide: FLSPEHQRVQQRKESKKPPAKLQPRC
B2: 9-28 ghrelin fragment (peptide)
peptide: HQRVQQRKESKKPPAKLQPR
B3: Fab 5611 (Fab, V domains shown)
VH: QVQLQQSEAELVRPGSSVKISCKASGYAFSNYWMNWVKQRPGQGLEWIGQIYPGDGDTKYNGKFKGKATLTADKSSSSAYMQLSSLTSEDSAVYFCVITTVVGGDSDVWGAGTTVTVSS
VL: DLVLTQSPASLAVSLGQRATISCRASKSVSTSGYSYMHWYQQKPGQPPKLLIYLASNLESGVPARFSGSGSGTDFTLNIHPVEEEDAATYYCQHSRELPYTFGGGTKLEIKR
notes: Murine Fab from an Omniclonal library of immunised C57Bl6 mice

Columns and labels:
[1] = molecular target: B3; assay: competition ELISA: peptide preincubated with 10 nM Fab 5611, mixture added to a plate coated with desacyl ghrelin, bound Fab detected with anti-mouse kappa-HRP, A490
Method: (§1) (450-655061) by adding 60 uL of a 0.4 μg/ml (in H₂O) solution to each well. The assay plate is placed in a dry 37° C. incubator overnight. The next day, the assay plate is washed (wash buffer: 0.1% Tween 20, Tris-buffered saline (TBS)), and blocked with casein/PBS (Pierce 37528).
(§2) “2-28 acyl ghrelin” and “3-28 acyl ghrelin” in FIG. 1 refer to acyl ghrelins (SEQ ID NO: 17) missing the first one or two amino acids at the N-terminal end of the molecule, respectively. In FIG. 2, “1-8 (cys) desacyl” refers to a desacyl ghrelin fragment consisting of amino acids 1-8 of SEQ ID NO: 17, with an additional cysteine residue at the C-terminus. “4-28 (cys)” refers to a ghrelin fragment consisting of amino acids 4-28, also with an additional cysteine residue at the C-terminus. “9-28” refers to a ghrelin fragment consisting of amino acids 9-28 of SEQ ID NO: 17. Dilutions of the ghrelin, ghrelin analogs, and Fab are made in casein/PBS. These mixtures are incubated in a separate plate for 1 hour at room temperature.
(§3) The blocking solution is removed from the assay plate and 50 uL of the ghrelin/Fab mixture are added to the assay plate in duplicate. This is allowed to sit for 30 minutes at room temperature. […] The reaction is stopped with 100 uL of 1 N HCl, and the absorbance of the wells is read at 490 nm (Molecular Device SpectraMax250).

[2] = molecular target: B2; assay: competition ELISA on coated desacyl ghrelin, Fab at 10 nM
Method: as §1, §2, §3

[3] = molecular target: B1; assay: as above
Method: as §1, §2, §3

[4] = molecular target: T1, desacyl human ghrelin (human); assay: SPR (BIAcore 2000), Fab captured by goat anti-mouse kappa, ghrelin in solution, 25 C
T1 construct: also called desacyl ghrelin; 1-28 desacyl ghrelin
Method: (§4) Except where noted, all reagents and materials are purchased from BIAcore® AB (Upsala, Sweden). All measurements are performed at 25° C. Samples containing rat or human desacyl ghrelin are dissolved in HBS-EP buffer (150 mM sodium chloride, 3 mM EDTA, 0.005% (w/v) surfactant P-20, and 10 mM HEPES, pH 7.4). A capture antibody, goat anti-mouse Kappa (Southern Biotechnology, Inc), is immobilized onto flow cells using amine-coupling chemistry. Flow cells (1-4) are activated for 7 minutes with a 1:1 mixture of 0.1 M N-hydroxysuccinimide and 0.1 M 3-(N,N-dimethylamino)propyl-N-ethylcarbodiimide at a flow rate of 10 μl/min. Goat anti-mouse Kappa (30 μg/mL in 10 mM sodium acetate, pH 4.5) is manually injected over all 4 flow cells at a flow rate of 10 μL/min. The surface density is monitored and additional goat anti-mouse Kappa is injected if needed to individual cells until all flow cells reach a surface density of 4500-5000 response units (RU). Surfaces are blocked with a 7 minute injection of 1 M ethanolamine-HCl, pH 8.5 (10 μL/min). […]
(§5) Collection of kinetic binding data is performed at maximum flow rate (100 μL/min) and a low surface density to minimize mass transport effects. […] Signal is monitored as flow cell 2 minus flow cell 1, flow cell 3 minus flow cell 1 and flow cell 4 minus flow cell 1. […]

[5] = molecular target: T1, desacyl human ghrelin; assay: SPR (BIAcore 2000), antibody captured by goat anti-mouse kappa, ghrelin in solution, 25 C
Method: as §4, §5

B1: no binding (tested: 1000 nM) [1].

B2: no binding (tested: 1000 nM) [1].

For B3, the binding result [2] was “no binding (tested: at the concentrations tested)”, the binding result [3] was “no binding (tested: at the concentrations tested)” and the Kd [4] was 138 pM.

B4: E8 mouse IgG1 monoclonal antibody (antibody, V domains shown)
VH: QVQLQQSEAELVRPGSSVKISCKASGYAFSNYWMNWVKQRPGQGLEWIGQIYPGDGDTKYNGKFKGKATLTADKSSSSAYMQLSSLTSEDSAVYFCVITTVVGGDSDVWGAGTTVTVSS
VL: DLVLTQSPASLAVSLGQRATISCRASKSVSTSGYSYMHWYQQKPGQPPKLLIYLASNLESGVPARFSGSGSGTDFTLNIHPVEEEDAATYYCQHSRELPYTFGGGTKLEIKR
notes: domain: constant domain of mouse IgG1; also called E8 antibody; E8 mouse IgG1 mAb
For B4, the Kd [5] was 226 pM.

Reference: US20090060920A1 (Eli Lilly, published 2009)
